± gives the uncertainty stated by the source.
Experiment: amyloid nucleation score (Sup35N fusion, yeast selection) (log enrichment); library NNK3; higher = more nucleation; inactive = no reads after selection
In short: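 The nucleation score is the DiMSum log enrichment of output over input reads, centred on the mode score of non-aggregating sequences. Only sequences with 100 or more input reads were scored, using Illumina sequencing of input and output plasmid inserts. Psi-negative yeast expressing Sup35N fused to peptides of 20 random codons were induced 24 hours with 100 μM copper sulfate and grown 7 days at 30°C on medium lacking adenine and uracil.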

Amyloid nucleation score, 0.186 ± 0.53:
GQEGSRN

Amyloid nucleation score, 2.15 ± 0.06:
GPLHMANYGYVLNIYLSCRN

Amyloid nucleation score, 0.695 ± 0.2:
GSYSNAHTPQF

Amyloid nucleation score, 2.38 ± 0.054:
GVAIAYHEFVDCSFFNYNIV

Amyloid nucleation score, 0.356 ± 0.22:
GNSVRIAWQVWCTLCMTRQW

Amyloid nucleation score, -0.382 ± 1.1:
GSFMDHKTR

Amyloid nucleation score, 2.47 ± 0.087:
GVNCLSLGSKIICGSTGWFL

Amyloid nucleation score, 1.91 ± 0.091:
GLVSVLSDEMYCFWQYSCYS

Amyloid nucleation score, 1.45 ± 0.068:
GLEAPTCPEVFNIGIFSYYH

Amyloid nucleation score, 0.514 ± 0.4:
GWAMTWNDVYLSYSIYSHSK

Amyloid nucleation score, 0.637 ± 0.12:
GNLWT

Amyloid nucleation score, 0.13 ± 0.63:
GGLQTERFLWRC

Amyloid nucleation score, 0.545 ± 0.28:
GMRRFHNVRINVVSRWWFLE

Amyloid nucleation score, 0.132 ± 0.59:
GIYFDSGLRGWHSLNHRCRR

Amyloid nucleation score, 0.308 ± 0.21:
GGMHRAYMESVSDVYLRKWW

Amyloid nucleation score, 1.33 ± 0.07:
GIKKTREPNCLVCIDIWIFI

Amyloid nucleation score, -0.063 ± 0.31:
GNVQIDASIKKSNGRWYGSV

Amyloid nucleation score, 3.36 ± 0.06:
GVNWFSIQFNIWVLSRDADL

Amyloid nucleation score, 1.19 ± 0.12:
GSICFNPTVWLVSRYRCS

Amyloid nucleation score, 2.58 ± 0.065:
GTQCWLILCADNLNVLGIGL

Amyloid nucleation score, 0.199 ± 0.23:
GQSLLFRISLISCV

Amyloid nucleation score, 0.101 ± 0.19:
GWKLSSVGNKRDCSSMHVDR

Amyloid nucleation score, 2.42 ± 0.071:
GRMFVNVNFAIQCYMAFTYL

Amyloid nucleation score, -0.962 ± 1.9:
GNISGLNLVCEPIAVGSACE

Amyloid nucleation score, -0.375 ± 0.83:
GVKLVPAAIVGYASLQGL

Amyloid nucleation score, -0.289 ± 1.1:
GFFTYTTRSGDSSYGVEASA

Amyloid nucleation score, 1.72 ± 0.11:
GSGGYWFMINVPENKIWVYL

Amyloid nucleation score, inactive:
GDSNTSRLCAPSMRNVKAQL, GDVLLY, GDVNCLNTVTLKNNKTRGHI, GECPRQRVSLM, GEHSGRYYSNVSKNESMGVI, GEIANSQVRKWLIEMYSPVV, GEIRSKTTVLP, GERHMVLSVNLRCVTVNVYW, GESSP, GFGDRMDNPSVVSK, GFHELRLH, GFIGECFFDHMGITFVLIET, GFIVSRERLNVMVLFSVYW, GFLLFLAVWRDTIGIVLVVL, GFMHTVRCIRIEPPQCRAVV, GFNYVFDSGEFGDRSFWHIY, GFTRKFSFYKRHQSVWITRR, GFWWVTRPSTPARLSSMSPQ, GFYAE, GGAVMMALWGGLS, GGHVSRRLHF, GGKAISNFEFLLILGPY, GGLCRGYQDMIMLWNMLQKQ, GHLFVNTRYFGNFLDSSQVR, GHTRDFKGSFDFPLNFY, GICEMVGTSYTFE, GIFVGPSVDSLLKLRARSHY, GIKFAGRRLTSEDL, GILSISQNKISVHPLLLLRI, GISFFIMFILVPLFRKGVKV, GISILLSSYPRMCLLRLVGL, GIWSASRLKGNSLYCLLKNV, GIYSI, GKDSCKTTLVSRRLLRLKAP, GKFLVFAKVNVMVGCVLLFM, GKFNTCA, GKGFCLLVVSSVMRDVGLVQ, GKMLRWMKH, GKSIYCWFWVKMQEAERLMS, GKSSKDLHIFIMIRVWHYLT, GKSTVGMI, GKTLLTSKDGCV, GLCNNHIGKIFTYWNTPLDY, GLEVLVISIGAWLSLTLSFQ, GLISPRYATSSWLCQPIINF, GLLFYYMILLGELLQR, GLLLVRM, GLLMSMRSFFSGQVQNGAVL, GLLNSD, GLVHCNGSPAQITFKDTFNR, GLVWVN, GLWNDCKRWLRRS, GMTVLLSMVI, GNCHDVWVYVLCTVGMSLMR, GNEIGITGVYGLHRSAKVVV, GNFCDCEDFHKGSAGLRWSG, GNFMNNGRLVASPLLREVCC, GNGVTPWPAEENSSRSPMPY, GNSDR, GNSLWKSPCYL, GNWCSG, GNWQCFTEGRTPCYFCCITT, GNWSYVENYV, GPGSYWEMRTN, GPRMCMQLRS, GPTLSGLNIAHWSNIYQDLG, GQKDCYFLIMYIREVLNRYT, GQWELGHFQCKVPYLLSQLL, GRCFKFCNLDT, GRIQPCISRAAGPDAGVMGL, GRNRHTYDRLYCPFVRSLIV, GRRYVLEENSVIISWCVIYY, GRTVTVWMFASVRRGVTGYV, GRTWFKYPHSDSGCSFWLTA, GSDFTESCVDFFLVVNVDAV, GSDVMSGG, GSFNFCSNAARFQ, GSFSCWYCEVVNVV, GSGRNLSVLVYRLWVDGPTG, GSIDFSSSCECIGDWHHRGY, GSKYMQRHLNTI, GSLCFGLDSSPSTKIYLYDS, GSLIMSLAR, GSLMRVLLFEYLMDTCLWIV, GSSDNGFFCSLNMN, GSSTYLTDLPTSPPSVFSSL, GSVSYLNMTVFFSTVLFIYT, GSVTGAFERYVKKEA, GSWLNSYVELTCVFFGSFYM, GTGEGNDLCARQNPLHQRII, GTLVWNCDGCLDLKGRWVGG, GTVLNSLPQQVGCLRLGSQG, GTVSSYLRTHSKVFSRRFRD, GTYPSKIKGFTLKGNLR, GVAELMGVWDVKLVVPLEES, GVAPYFQCVLIEEERVEGQG, GVHHDCDYCRYLDDDVKLWW, GVITISREDQYLAVGVIQWI, GVNDRGNKRYAPYKTWLRLE, GVRHLYVPMFHFVIMGRWHH, GVSDVVFWSIGYHGRRISQS, GVVSCHSFSRRRKALRGYSS, GVVSSSPMCVNSDREVVEKT, GVWRLATHGYSQ, GWLKNNYSTYDTEKKFTATF, GWRAIWGNWNLQYRTS, GYAISRFVFDTFRIFAVL, GYCGQVCWFNAKSWMKRMTF, GYFARLR, GYKDIDLTSERGK, GYQLLNHLHAYTAGTNNLRL, GYVSALMMIFYYHLWKKGPC, HAAYGKCLQWFTRLVCYPVA, HAMCHVVGTRISGYLCAYGT, HASSWFYWRIFASGLNSDR, HATGSMNVSVSAGVRQQILR, HAVYL, HAWTQPNHI, HAYSWVLFAVMSLSRLPTWN, HCEFRSQSDTNVVNLCGQGW, HCGRTEKDGQLCCENLSGFS, HCHCIVEYQFFSVHLIRTYE, HDSQMWYLSIIESYLVQYLM, HEIPETQFCSIWFDSVCWCL, HFHSVIELVYG

Amyloid nucleation score, 0.49 ± 0.21:
GSALSSLFQCLLFPLSVSVL

Amyloid nucleation score, 0.587 ± 0.24:
GWLYYQLNLDNTSVRQHWSV

Amyloid nucleation score, -0.388 ± 0.75:
GKTSGCWSFFYILIS

Amyloid nucleation score, 2.13 ± 0.078:
GYYLLTVCGDWCSVSVHSGF

Amyloid nucleation score, -0.507 ± 1.1:
GPCFEVAVYYDATEMGKQSI

Amyloid nucleation score, 0.956 ± 0.17:
GNVILCFMLNYSMISGNDM

From the supplement of paper PMC12042874
